Source: patent US20090035322A1 (Regeneron, published 2009)
Substitutions are numbered along the chain they refer to.

T1: human CD20 (human, UniProt P11836 1-297)
T1 sequence: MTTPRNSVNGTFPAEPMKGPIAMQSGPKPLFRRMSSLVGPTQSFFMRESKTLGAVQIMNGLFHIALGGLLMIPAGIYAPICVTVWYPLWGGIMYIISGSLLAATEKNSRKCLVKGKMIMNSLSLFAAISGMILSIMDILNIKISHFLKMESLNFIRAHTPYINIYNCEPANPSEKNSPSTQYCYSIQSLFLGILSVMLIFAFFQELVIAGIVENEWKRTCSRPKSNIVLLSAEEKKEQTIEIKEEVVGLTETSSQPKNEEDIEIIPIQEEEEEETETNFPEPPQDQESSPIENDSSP

T2: mutant human CD20 #2 (N163D) (human, UniProt P11836 1-297)
T2 construct: Stably expressed on MG87 cells
T2 sequence: T1 sequence with N163D

T3: mutant human CD20 #3 (A170S, P172S) (human, UniProt P11836 1-297)
T3 construct: Stably expressed on MG87 cells
T3 chain: T1 sequence with A170S, P172S

T4: mutant human CD20 #7 (Y77F, N163D) (human, UniProt P11836 1-297)
T4 construct: Stably expressed on MG87 cells
T4 chain: T1 sequence with Y77F, N163D

B1: 2C11-4 (antibody, V domains shown)
VH: EVQLVESGGGLVQPGRSLRLSCAASGFTFRDYAMHWVRQGPGKGLEWVSGISWNTDYIGYADSVKGRFTISRDNAKNSLYLQMNSLRPEDTALYYCAKDARYGRDNYYGMDVWGQGTTVTVSS
VL: EIVLTQSPATLSLSPGERATLSCRASQSVSRYLAWYQQKPGQAPRLLIHDASNRATGIPARFSGSGSGTDFTLTITSLEPEDFVVYYCQQRSDWPITFGQGTRLEIK
notes: Fully human IgG, constant region not specified; also called 2C11-4N
B2: 9H4-12 (antibody, V domains shown)
VH: EVQLVESGGGLVQPGRSLRLSCAASGFTFDDYAMHWVRQVPGKGLEWVSGISWNSGSIGYADSVKGRFTISRDNAKNSLYLQMNSLRAEDTALYYCAKDMGYGNYYHYGMDVWGQGTTVTVSS
VL: B1 VL with E1D, R31S, H49C, N53H, G57R, T76S, V84A, D93N
notes: Fully human IgG, constant region not specified; also called 9H4-12N
B3: 7E1-13 (antibody, V domains shown)
VH: EVQLVESGGGLVQPGRSLRLSCTASGFTFGDFPMHWVRQAPGKGLEWVSGITWNSGSIVYADSVKGRFTISRDNAKNSLYLQMNSLRTEDTALYYCAKDSHYGSGNFYYYYYGMDVWGQGTTVTVSS
VL: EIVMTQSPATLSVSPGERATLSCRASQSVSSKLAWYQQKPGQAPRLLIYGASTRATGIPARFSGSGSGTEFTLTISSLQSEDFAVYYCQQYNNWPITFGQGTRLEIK
notes: Fully human IgG, constant region not specified; also called 7E1-13N
B4: 3B9-10 (antibody, V domains shown)
VH: EVQLVESGGGLVQPGRSLRLSCVASGFTFNDYAMHWVRQAPGKGLEWVSVISWNSDSIGYADSVKGRFTISRDNAKNSLYLQMHSLRAEDTALYYCAKDNHYGSGSYYYYQYGMDVWGQGTTVTVSS
VL: EIVMTQSPATLSVSPGERATLSCRASQSVSSNLAWYQQKPGQAPRLLIYGTSTRATGIPARFSGSGSGTEFTLTISSLQSEDFAVYYCQQYNNWPLTFGGGTKVEIK
notes: Fully human IgG, constant region not specified; also called 3B9-10N
B5: 3H7-6 (antibody, V domains shown)
VH: EVQLVESGGGLVQPGRSLRLSCAASGFTFYDYAMHWVRQAPGKGLEWVSGISWNSGYIGYADSVKGRFTISRDNAKNSLYLQMNSLRAEDTALYYCAKDNSYGKFYYGLDVWGQGTTVTVSS
VL: B4 VL with A19T, Q37L, T51A, T72I, L96I, G100Q, K103R, V104L
notes: Fully human IgG, constant region not specified; also called 3H7-6N
B6: 9C3-8 (antibody, V domains shown)
VH: B4 VH with V23A, T28S, N30H, V50G, I58L, H84N, Y107H, Q111K
VL: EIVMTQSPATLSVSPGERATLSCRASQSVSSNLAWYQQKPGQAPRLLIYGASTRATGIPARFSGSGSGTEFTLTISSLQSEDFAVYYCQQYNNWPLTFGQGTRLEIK
notes: Fully human IgG, constant region not specified; also called 9C3-8N

molecular target: T1, human CD20; experiment: cell-based or functional assay

CDC, Daudi EC50 [nM] | CDC, RL EC50 [nM] | Binder
> 50 | 5.19 | B1
51.1 | 29.6 | B2
1.59 | 5.81 | B3
1.86 | 8.84 | B4
0.44 | 3.66 | B5
2.22 | 11.1 | B6

molecular target: T1, human CD20; experiment: cell-based or functional assay; remark: another data set of the same source

Binder | % Cytotoxicity (CDC, Daudi), 0 hour [%] | % Cytotoxicity (CDC, Daudi), 1 hour [%] | % Cytotoxicity (CDC, Daudi), 6 hour [%]
B5 | 97.5 | 94 | 67.6

molecular target: T1, human CD20; experiment: cell-based or functional assay; remark: another data set of the same source

Binder | % Cytotoxicity (CDC, Daudi), 0 hour [%] | % Cytotoxicity (CDC, Daudi), 1 hour [%] | % Cytotoxicity (CDC, Daudi), 6 hour [%]
B1 | 29.1 | 14 | 22.4
B2 | 43.2 | 17.4 | 23.1
B3 | 98.1 | 98.5 | 89.3
B4 | 98.4 | 97.9 | 82.2
B6 | 98.7 | 98.5 | 76.9

molecular target: T1, human CD20; experiment: cell-based or functional assay; remark: another data set of the same source

ADCC EC50 (pM), Daudi + PBMC [pM] | Binder
1.45 | B1
33.8 | B2
2.14 | B3
6.77 | B4
11.1 | B5
11 | B6

molecular target: T1, human CD20; experiment: flow cytometry, hCD20-transfected MG87 cells
Protocol: Briefly, parental MG87 and human CD20-transfected MG87 cells were incubated for 30 min at 4° C. with each of the 15 human antibodies and the two control antibodies, followed by incubation with PE-conjugated anti-human IgG antibody. Binding was assessed by flow cytometry. Fluorescence intensities were compared with binding to the parental cell line and control isotype-matched sample.

Total Mean Fluorescent Intensity | Binder
2010 | B1
2040 | B2
3080 | B3
2990 | B4
3300 | B5
2910 | B6

molecular target: T2, mutant human CD20 #2 (N163D); experiment: FACS, mutant-hCD20 MG87 cells; 100%=best antibody
Protocol: (§1) Briefly, approximately 1×10⁶ cells from each stably transfected cell line expressing a mutant human CD20 were collected and incubated with each anti-human antibody, at 10 μg/ml, on ice for 1 hr, followed by incubation with APC-conjugated goat anti-human IgG (Jackson Immunolabs), at 10 μg/ml, on ice for 45 min. For each antibody, binding to each mutant human CD20 was assessed by flow cytometry.

Percent of Binding to Mutant Human CD20 [%] | Binder
0 | B1
0 | B2
49 | B3
6 | B4
1 | B5
0 | B6

Molecular target: T3, mutant human CD20 #3 (A170S, P172S)
Experiment: FACS, mutant-hCD20 MG87 cells; 100%=best antibody
Protocol: as §1

Percent of Binding to Mutant Human CD20 [%] | Binder
11 | B1
0 | B2
95 | B3
67 | B4
43 | B5
84 | B6

Molecular target: T4, mutant human CD20 #7 (Y77F, N163D)
Experiment: FACS, mutant-hCD20 MG87 cells; 100%=best antibody
Protocol: as §1

Percent of Binding to Mutant Human CD20 [%] | Binder
1 | B1
2 | B2
1 | B3
1 | B4
1 | B5
1 | B6
